According to patent US20240025992A1:

Molecular target: human CD3 (CD3 epsilon as part of the T cell receptor complex) on cells (human) (UniProt P07766)
Experiment: flow cytometry on Jurkat cells, 10 nM antibody

human CD3 (CD3 epsilon as part of the T cell receptor complex) on cells (human), sequence (P07766 23-207 limits assumed, one chain of several): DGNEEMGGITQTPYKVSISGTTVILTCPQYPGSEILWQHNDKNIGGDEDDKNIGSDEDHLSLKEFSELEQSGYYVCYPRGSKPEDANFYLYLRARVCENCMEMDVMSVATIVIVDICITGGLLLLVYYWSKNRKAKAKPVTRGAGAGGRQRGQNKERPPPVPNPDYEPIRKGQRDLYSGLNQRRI

MFI (arbitrary units): 89200
Substance: UCHT1 (antibody)
